The text below walks through data of paper doi:10.1101/2021.07.28.453719 (bioRxiv, 2021).

The target in assay [1] is first bromodomain (BD1) of BRD4, wild type (human, UniProt O60885). In words: ITC.
In assay [2] the target is first bromodomain (BD1) of BRD3, wild type (human, UniProt Q15059). The assay is described as follows: ITC. (In general: Isothermal titration calorimetry measures the heat released or taken up as one component is titrated into another.)

No end group written: not given here.

Chain of first bromodomain (BD1) of BRD3, wild type (Q15059 24-144): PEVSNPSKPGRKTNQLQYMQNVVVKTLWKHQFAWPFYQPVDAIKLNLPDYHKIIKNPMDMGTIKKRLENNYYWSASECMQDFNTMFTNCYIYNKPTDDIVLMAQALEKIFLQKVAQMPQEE

With AK(Ac)GLLLK(Ac)G [diacetylated ILF3 peptide 10 (AKacGLLLKacG)], in assay [1], the Kd (in general, the equilibrium constant for the complex coming apart) came out at 167 ± 28 µM. In assay [2], the binding result is “binds”.
On to AK(Ac)GALLK(Ac)G [ILF3 variant peptide AKacGALLKacG (aa 99-106) 15 carrying L102A], for which the Kd in assay [1] worked out at 60 ± 10 µM.
